Among the data in PMC8649778 are stoichiometry N values, retold here.

The experiment concerns the target APRc_(110–231)His, soluble domain of APRc fused to a C-terminal His tag (Rickettsia conorii) (UniProt Q92FY8). The experiment is described as follows: shift of migration in nonreducing SDS-PAGE with Western blot.

As for “APRc_(110–231)His, soluble domain of APRc fused to a C-terminal His tag (from UniProt Q92FY8 110-231) (domain or fragment)”, the stoichiometry N is 2.
